From patent US5223421A, “Identification of methionine Nα-acetyltransferase” (The General Hospital Corporation, priority 1990, dated 1993) come the findings set out here.

The target of this experiment is T1, yeast methionine acetyltransferase (M-N^α AT) (Saccharomyces cerevisiae, UniProt Q06504).
T1 construct: a crude yeast homogenate from the aaa1 mutant strain; endogenous in cells; host or cells: Saccharomyces cerevisiae strain T3A-a (aaa1), crude lysate
T1 sequence (Q06504 1-195): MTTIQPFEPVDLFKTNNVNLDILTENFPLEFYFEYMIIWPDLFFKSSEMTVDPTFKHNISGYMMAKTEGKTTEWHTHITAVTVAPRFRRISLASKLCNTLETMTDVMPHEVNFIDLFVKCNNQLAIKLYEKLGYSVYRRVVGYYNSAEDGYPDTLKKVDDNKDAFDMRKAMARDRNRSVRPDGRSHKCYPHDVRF
T1 sequence (Q12387 2-796 partner limits assumed): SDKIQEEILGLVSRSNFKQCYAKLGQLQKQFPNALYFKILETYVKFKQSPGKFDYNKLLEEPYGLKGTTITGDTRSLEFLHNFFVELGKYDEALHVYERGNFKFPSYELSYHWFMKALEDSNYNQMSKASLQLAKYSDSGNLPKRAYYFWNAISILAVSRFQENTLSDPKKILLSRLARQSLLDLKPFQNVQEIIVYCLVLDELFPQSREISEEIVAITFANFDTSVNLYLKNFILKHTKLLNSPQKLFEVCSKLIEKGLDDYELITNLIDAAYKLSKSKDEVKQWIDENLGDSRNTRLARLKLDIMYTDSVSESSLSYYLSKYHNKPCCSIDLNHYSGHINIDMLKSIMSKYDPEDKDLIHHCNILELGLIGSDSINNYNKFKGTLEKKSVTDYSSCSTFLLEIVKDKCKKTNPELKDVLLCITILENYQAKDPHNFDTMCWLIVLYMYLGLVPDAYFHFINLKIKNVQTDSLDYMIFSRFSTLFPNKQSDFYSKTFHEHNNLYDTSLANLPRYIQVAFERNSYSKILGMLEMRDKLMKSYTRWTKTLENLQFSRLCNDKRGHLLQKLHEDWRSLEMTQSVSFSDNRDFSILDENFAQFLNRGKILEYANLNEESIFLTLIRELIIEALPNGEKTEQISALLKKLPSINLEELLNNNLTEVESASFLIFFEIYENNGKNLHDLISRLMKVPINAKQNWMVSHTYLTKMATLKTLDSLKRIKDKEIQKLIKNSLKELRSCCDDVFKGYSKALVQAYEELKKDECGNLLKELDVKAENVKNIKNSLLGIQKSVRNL
The experiment can be described thus: Relative activity of yeast methionine acetyltransferase for N^α -acetylation of synthetic peptides (PAI analogues). The class given is biochemical. Further details: tested at 50 µM. The note with it: Table 5; mean ± SD (N=3-5); normalized to yeast proteinase A inhibitor 3. As for the experimental part: N^α -acetyltransferase activity was determined as previously described [Lee et al., J. Biol. Chem. 263:14948-14955 (1988)]. Aliquots of the lysate or chromatographic fractions were added to 1.5 ml Eppendorf tubes containing a reaction mixture of 50 mM HEPES, pH 7.4, 150 mM KCl, 1 mM DTT, 25 μM [^3 H] acetyl coenzyme A (0.5 μCi) and 50 μM synthetic peptide with an adjusted final volume of 100 μl. The assay mixture was incubated at 30° C. for 30 min. The reaction was stopped by adding 17 μl of 0.5M acetic acid and chilled in an ice bath. The reaction samples were filtered through SP membrane discs (Cuno) (previously pre-swollen in 0.5M acetic acid), and then washed three times with 1 ml of 0.5M acetic acid on a Millipore 1225 sampling manifold. The partially dried membranes were placed in scintillation cocktail and counted with a Beckman LS 3801 scintillation counter. One unit of activity was defined as the amount of enzyme able to transfer 1 pmol of [^3 H] acetyl group from [^3 H] acetyl coenzyme A to synthetic peptide per min under standard enzyme assay conditions defined above.
Proteinase A inhibitor 3 (PAI) (Tsunasawa et al., Methods Enzymol. 106:165-170 (1984); Wold, F., Trends Biochem Sci. 9:256-267 (1984); Driessen et al., CRC Crit. Rev. Biochem 18:281-325 (1985); Mullen et al., EMBO J. 8:2067-2075 (1989); Lee et al., J. Bacteriol. 171:5795-5802 (1989); Hershko et al., Proc. Natl. Acad. Sci. USA 81:7021-7025 (1984); Bachmair et al., Science 234:179-186 (1986); Arfin et al., Biochemistry 27:7979-7984 (1988); Persson et al., Eur. J. Biochem. 152:523-527 (1985); Huang al., Biochemistry 26:8242-8246 (1987); Lee et al., J. Biol. Chem. 263:14948-14955 (1988); Kamitani et al., J. Biol. Chem. 264:13188-13193 (1989)) is the only known yeast protein which is acetylated at its NH2 -terminal methionine residue (Biedermann et al., Carlsberg Res. Commun. 45:225-235 (1980)). […] The numbers in parentheses refer to the residue numbers, and the letters in parentheses refer to the amino acid sequence Abbreviations are as in FIG. 1. Data are reported as mean activity ±SD (N=3-5) and are normalized to the activity of the homogenate towards yeast proteinase A inhibitor 3. The sequence of this protein is:
Thus, by using PAI, its analogues and other peptides, the structural features of M-N^α AT substrates were studied. […] Only three of nineteen analogues were acetylated, although the efficiency of their acetylation varied from 9-55% (Asp>Glu>Gln). Although it was shown previously that iso-cytochrome c variant proteins (Met-Ile-Arg - - -, Met-Ile-Lys - - -, Met-Met-Asn - - -) can be N^α -acetylated in vivo (Tsunasawa et al., J. Biol. Chem. 260:5382-5391 (1985)), synthetic peptides mimicking the NH2 -terminal 24 amino acid residues of these iso-cytochrome c variants were not acetylated by the yeast M-N^αAT.
Turning to “[Asp2 ]PROTEINASE A INHIBITOR 3 (1-24) (Yeast): synthetic PAI analogue with substitution at penultimate position (Asp) (MDTDQQKVSEIFQSSKEKLQGDAK; UniProt P01094 1-24, looked up, variant N2D)”, the “Activity (%)” value was determined as 55 ± 5%.
On to “[Gln2 ]PROTEINASE A INHIBITOR 3 (1-24) (Yeast): synthetic PAI analogue with substitution at penultimate position (Gln) (MQTDQQKVSEIFQSSKEKLQGDAK; UniProt P01094 1-24, looked up, variant N2Q)”, for which the “Activity (%)” value worked out at 9 ± 3%.
For “[Gly2 ]PROTEINASE A INHIBITOR 3 (1-24) (Yeast): synthetic PAI analogue with substitution at penultimate position (Gly) (MGTDQQKVSEIFQSSKEKLQGDAK; UniProt P01094 1-24, looked up, variant N2G)”, the “Activity (%)” value turned out to be 0%.
In the case of “[His2 ]PROTEINASE A INHIBITOR 3 (1-24) (Yeast): synthetic PAI analogue with substitution at penultimate position (His) (MHTDQQKVSEIFQSSKEKLQGDAK; UniProt P01094 1-24, looked up, variant N2H)”, the “Activity (%)” value was determined as 0%.
The figure for “[Ile2 ]PROTEINASE A INHIBITOR 3 (1-24) (Yeast): synthetic PAI analogue with substitution at penultimate position (Ile) (MITDQQKVSEIFQSSKEKLQGDAK; UniProt P01094 1-24, looked up, variant N2I)” is 0%.
Consider “[Met2 ]PROTEINASE A INHIBITOR 3 (1-24) (Yeast): synthetic PAI analogue with substitution at penultimate position (Met) (MMTDQQKVSEIFQSSKEKLQGDAK; UniProt P01094 1-24, looked up, variant N2M)”, for which the “Activity (%)” value is listed as 0%.
The figure for “[Phe2 ]PROTEINASE A INHIBITOR 3 (1-24) (Yeast): synthetic PAI analogue with substitution at penultimate position (Phe) (MFTDQQKVSEIFQSSKEKLQGDAK; UniProt P01094 1-24, looked up, variant N2F)” is 0%.
The figure for “[Pro2 ]PROTEINASE A INHIBITOR 3 (1-24) (Yeast): synthetic PAI analogue with substitution at penultimate position (Pro) (MPTDQQKVSEIFQSSKEKLQGDAK; UniProt P01094 1-24, looked up, variant N2P)” is 0%.
In the case of “[Trp2 ]PROTEINASE A INHIBITOR 3 (1-24) (Yeast): synthetic PAI analogue with substitution at penultimate position (Trp) (MWTDQQKVSEIFQSSKEKLQGDAK; UniProt P01094 1-24, looked up, variant N2W)”, the “Activity (%)” value is listed as 0%.
The figure for “[Val2 ]PROTEINASE A INHIBITOR 3 (1-24) (Yeast): synthetic PAI analogue with substitution at penultimate position (Val) (MVTDQQKVSEIFQSSKEKLQGDAK; UniProt P01094 1-24, looked up, variant N2V)” is 0%.
